The labels stand for the following.
B1: TPR 5TU (parent)
chain: GGAUCUUCUCGAUCUAACAAAAAAGACAAAUCUGCCACAAAGCUUGAGAGCAUCUUCGGAUGCAGAGGCGGCAGCCUUCGGUGGCGCGAUAGCGCCAACGUUCUCAACUAUGACACGCAAAACGCGUGCUCCGUUGAAUGGAGUUUAUCAUG

Variants at the floor of the assay were thinned out.

The variants in this data set derive from B1. Put plainly: polymerase ribozyme fitness, log enrichment relative to wild type (log ratio); higher = more active; in vitro selection for triplet polymerase activity. In outline:
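For each subunit of a heterodimeric triplet polymerase ribozyme, a mutant library was built by PCR and transcribed, then taken through a single in vitro selection round in triplicate. Selection involved annealing to a biotinylated primer, the partner subunit and triplets, incubation frozen at −7 °C, gel excision of extended constructs, capture on streptavidin beads and RT-PCR. Genotypes were retained after Illumina sequencing of inputs and outputs only with ≥10 input reads and ≥1 read in each output. Fitness is defined as the logarithm of a genotype's enrichment relative to wild-type enrichment, using inverse-variance-weighted averages across replicates, with the logarithm taken to base 2.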
In the case of GGAUCUUCUAGAUCUAACAAAAAAGACAAAGCUGCCACAAAGCUUGAGAACAUCUUCCGAUGCAGAGGCGGCAGCCUUCGGUGGCGCGAUAGCGCAAACGUUCUCAACUAUGACAUGCAAAACGCGUGCUCCGUUGAAUGGAGUUUAUCAUG, the “polymerase ribozyme fitness (log ratio)” value is not above -4.2.
As for GGAGCUUCUCGACCUAACGAAAAAGACAAAUCUGCCACAAAGCUUGAGAGCGUCUGCGGAUGCUGAGGCGGCAGCCUUCCGUGGCGCGAUGGCGGCAACGUUCUUAACAAUGACACGCUAAACGCGUGCUCCGUUGAAUGGAGUUUAUCAUG, the “polymerase ribozyme fitness (log ratio)” value was not above -4.2.
Consider GGAUCUUCUCGAUCUAACAAAAAAGACAAAUCUGCCACAUAGCUUGAGAGCAUCUUCAGAUGCAGAGGCGGCAGCCUUCGGUGGCGCGAUAGCGCCAACGUUCUCAACUAUGACACGCAAAACGCGUGCUCCGUUGAAUGGAGUUUAUCAUG, for which the “polymerase ribozyme fitness (log ratio)” value amounted to 0.274.
Turning to GGAUCUUCUCGAUCUAACAAAAAAGACAAAUCUGCCACAAAGCUUGAGAGCAUCUUCGGAUGCAGAGGCGGCAGCCUUCGGUGGCGCGAUAGGGCCAACGUUCUCAACUAUGACGCGCAAAACGCGUGCUCCGUUGAAUGGAGUUUAUCAUG, the “polymerase ribozyme fitness (log ratio)” value was -4.09.
For GGAUCUUCUCGAUCUAACUAAAAAGACAAAUCUGCCACAAAGCUUGAGAGCAACUUCGGAUGCAGAGGCGCCAGCCUUCGGUGACGCGAUAGCGCUUACGUUCUCAAGUAUGACACGCAAAACGCGUGCUCCGUUGAAUUGAGUUUAUCAUG, the “polymerase ribozyme fitness (log ratio)” value was not above -4.2.
For the variant GGAUAUUCUCGGUCUAACAAAAAAGACAAAUCUGACACAAAACUUGAGAGCAUCUUCGGAUGCAGAGGCGGCAGCCUUCGGUGGCGCGAUAGCGCUAACGUUCUCAACUAUGACACGCAAAACGCGUGCUCCGUUGAAUGGAGUUUAUCAUG, the “polymerase ribozyme fitness (log ratio)” value was not above -4.2.
GGAUCUUCUCGAUCUAACAAAAAAGAUACAUCUGCCACAAAGCAUGAGAGCAUCAUCGGAUGCAGAGGCGGCAGCCUUCGGUGGCGCGAUAGCGGCAACGUUCUCAACUAUGACACUCAAAACGCGUGCUCCGUUGAAUGGAGUUUAUCAUG: the “polymerase ribozyme fitness (log ratio)” value was not above -4.2.
For GGAUCUUCUCGAUCUAACGAAAAAGUCAAAUCUGCGACAAAGCUUGAGAGCAUCUUCGGAUGCAGAGGCGGCUGCCUUCGGUGGCGACAUAGCGCCGACGUUCUCAACUAUGACACGCAAAACGCGUGCUCCGUUGAAUGGAGUUUAUCAUG, the “polymerase ribozyme fitness (log ratio)” value was not above -4.2.
Next, GGAUCUUCUCGAUCUAACAAAAAAGACAAAUCUGCCACAAAGCUUGAGAGCAUCUUCGGAUGCAGAGGCGGCGGCCUUCGGUGGCGCGAUAGCGCCAACGUUCUCAACUAUGACACGCAAAACGUGUGCUCCGUUGAAUGGAGUUUAUCAUG: -0.349; GGAUCUUCUCGUUCUAACAAAAAAGACAAAUCUGCCACAAAGCUUGAGAGCAUCUUCGGAUGCAGAGGCGGCAGCCUUCGGUGGUGCGAUAGCGCCAAGGUUCUCAACUAUGACACGCAAAACGCGUGCUCCGUUGAAUGGAGUUUAUCAUG: -1.04.
On to GGAUCUUCUGGAUCUAACAAAAAAGACAAAUCUGCCACAAAGCUUGAGAGCAUCUUAGGAUGCAGAGGCGGCAGCCUUCGGUGGCGCGAUAGCGCCAACGUUCUCAAAUAUGACGCGCAAAACGCGUGCUCCGAUUAAUGGAGUUUAUCAUG, for which the “polymerase ribozyme fitness (log ratio)” value was not above -4.2.
Next, GGAUCUUCUCGAUCUAACAAAAAAGACAAAUCUGCCACAAAGCUUGAGAGCAUCUUCGGAUGCAGAGGCGGCAGCCUUCGGUGGCGCGAUAGUGCCAACGUUCUCAACUAUGACACGCUAAACGCGGGCUCCGUUGAAUGGAGUUUAUCAUG: -2.59; GGAUCUUCUCGAUCUAACAAAAACGACAAAUCUGCCACAAAGCUUAAGAGCAUCUUGGGAUGCAGAGGCGGCAGGCUUCGGUGGCGCGGUAGCGCGAACGUUCUCAACUAUGACACGCAAAACGCGUGCUCCGUUGAAUGGAGUUUAUCAUG: not above -4.2.
Consider GGAUCUUCUCGAUCUAACAAAAAAGACAAAUCUGCCACAAAGCUUGAGAGCAUCUCCGGAUGCAGAGGCGGCAGCCUUCGGUGGCGCGAUAGCGCCAACGUUCUCAACUAUGACACGCAAAACGCGUGCUCCGUUGAAUGGAGUUUAUCAUG, for which the “polymerase ribozyme fitness (log ratio)” value is -0.389.
With GGAUCUUCUCGAUCUAACAAAAAAGACAAAUCUGCCACAAAGCUUGAGAGCAUCUUCGGAUGCAGAGGCGGCAGCCUUCGAUGGCGCGAUAGAGCCAACGUUCUCAACUAUGACACGCAAAACGCGUGCUCCGUUGAAUGGAGUUUAUCAUG, the “polymerase ribozyme fitness (log ratio)” value was -2.37.
For GGAUCUUCUCGAUCUAACAAAAAAGACAAAUCUGCCACAUAGCUUGAGAGCAUCUUCGGAUGCAGAGGCGGCAGCCUUCGGUGGCGCGAUAGCGCCAACGUUCUCAACUAUGACACGCAAAACGCGUGCUCCGUUGAAUGGAGUUUAUCAUA, the “polymerase ribozyme fitness (log ratio)” value is -2.57.
In the case of GGAUGUUCUCGGUCUAACUAAAAAGACAAAUCUGCCACAAAGCUUGAGAGCAUCUUCGGAUGCAGAGGCGGCAGACUUCGGUGGCGCGAUAGCGCCAACGUUGUCAACUAUGAUACACAACACGCGUGCUCCGUUGAAUGGUGUUUAUCAUG, the “polymerase ribozyme fitness (log ratio)” value was not above -4.2.
For GGAUCUCCUCGAUCUAACAAAAAAGACAAAUCUGCCACAAAGCUUGAGAGCAGCUUCGGAUGCAGAGGCGGCAGCCUUCGGUGGCGCGAUAGCACCAACGUUCUCAACUAUGACACGCAAAACGCGUGCUCCGUUGAAUGGAGUUUAUCAUG, the “polymerase ribozyme fitness (log ratio)” value is not above -4.2.
Take GGAUCUUCUCGGUCUAACAAAAAAGACAAAUCUGCCCCAAAGCUUGAGAGCAUCUUCGGAUGCAGAGGCGGCAGCCUUCGGUGGCACGAUAGCGACAACGUUCUCAACUAUGACACGCAAAACGCGUGCUCCGUUGAAUGGAGUUUAUCAUG: the “polymerase ribozyme fitness (log ratio)” value is not above -4.2.
GGAUCUUCUCGAUCUAACAAAAAAGACAAAUCUGCCACAAAGCUUGAGUGCAUCAUCGGAUGCAGAGGCGGCAGCCUUCGGUGGCGCGAUAGCGCCAACGUUCUCAACUAUGACACGCAAAACGCGUGCUCCGUUGAAUGGAGUUUAUCAUG: the “polymerase ribozyme fitness (log ratio)” value was -1.02.
GGAUCUUCUCGAUCUAACAAAUAAGACUAAUCUGCCUCAAACCUUGAGAGCAUAUUCGGAUGCAGAGGCGGCAGCCUUCGGUGGCGCGAUAGCGCCAACGUUAUCAACUAUGACACGCAAAACGCGUGCUCCGUUGAAUGGAGUUUAUCAUG: the “polymerase ribozyme fitness (log ratio)” value was not above -4.2.
For GGCUGUUCUCGAUGUAACAAAAAGGACAUAUAUGCCACAAAGCUUGAGAGCAUCUGCGGAUGCAGAGGCGGCAGCCUUCGGUGGCCCGAGAGCGCCAACGUUCUCAACUAUGACAGGCAAAACGCGUGCUCCGUUGAAUGGCGUUUAUCAUG, the “polymerase ribozyme fitness (log ratio)” value is not above -4.2.
In the case of GGAACUUCUCGAUCUAACAAAAAUGACAAAUCUGCCACAAAGCUUGAGAGCAUCUUGGGAUGCAGAGGCGGCAGCCUUCGGUGGUGCGAUAGCGCCAACGUUCUCAACUAUGACACGCAAAACGCGUGCUCCGUUGAAUGGAGUUUAUCAUG, the “polymerase ribozyme fitness (log ratio)” value was -0.18.
For the variant GGAUCUUCUCGAUCUAACAAAAAAGACAAAUCUGCCACAAAGCUUGAGAGCAUCUUCGGAUGCAGAGGCGGCAGCCUUCAGUGGGGCGAUAGCGCCAACGUUCUCAACUAUGACAGGCAAAACGCGUGCUCCGUUGAAUGGAGUUUAUCAUG, the “polymerase ribozyme fitness (log ratio)” value was -2.05.
Next, GGAUCUUCUCGAUCUAACAAAAAAGACAAAUCUGCCACAAAGCUUGAGAGCAUCUUCGGAUGCAGAGGCGGCAGCCUUCGGGGGCGCGAUAGUGCCAACGUUCUCAACUAUGACACGCAAAACGCGUGCUCCGUUGAAUGGAGUUUAUCAUG: -1.51.
Next, GGAUCUUCUCGAUCUAACAAAAAAAACAAAUCUGCCACAAAGCUUGAGAGCAUCUUCGGAUGCAGAGGCGGCAGCCUUCGGUGGCGCGAUAGCGCGAAGGUUCUCAACUAUGACACGCAAAACGCGUGCUCCGUUGAAUGGAGUUUAUCAUU: not above -4.2; GGAUCUUCUCGAUCUAACAAAAAAGACAAAUCUGCCACAAAGCUUGAUAGCAUCUUCGGAUGCAGAGGCGGCAGCCUUCGGUGGCGCGAUAGCGUCAACGUUCUCAACUAUGACACGCAAAACGCGUGCUCCGUUGAAUGGAGUUUAUCAUG: -1.01.
Next, GGAUCUUCUCGAUCUAACAAAAAAGACAAAUCUGCCACAAAGCUUGAGAGCAUCUUCGGAUGCAGAGGCGGCAGCCUUCGGUGGCGCGAUAGCGCCAACGUUCUCGACUAUGACAUGCAAAACGCGUGCUCCGUUGAAAGGAGUUUAUCAUG: not above -4.2; GGAUCUUCUCGAUCUAUCAAAUAAGGCAAAUCUGCGACAAAGCUUGAGAGCAUCUUCGGAUGCAGACGCGGCAGCCUUCGGUGGCGCGAUAGCGACAACGUUCUCAACUAUGACACGCAAAACGCGUGCUCCGUUGAAUGGAGUUUAUCAUG: not above -4.2; GGAUCUUCUCGAUCUAACAAAAAAGACAAAUCUGCCACAAAGCUUGAGAGCAUCUUCGAAAGCAGAGGAGGCAGCCUUCGGUGGCGCGAUAGCGCCAACGUUCUCAACUAUGACACGCAAAACGCGUGCUCCGUUGAAUGGCGUUUAUCAUG: -3.27.
On to GGAUCUUCUCGAUCUAACAAAAAAGACAAAUCUGCCACAAAGCUUGAGAGCAUCAUCGGAUGCAGAGGCGGCAGCCUUCGGUGGCACGAUAGCGCCAACGUUCUCAACUAUGACACGCAAAACGCGUGCUCCGUUGAAUGGAGUUUAUCAUG, for which the “polymerase ribozyme fitness (log ratio)” value was -1.59.
Regarding GGAUCUUCUCGAUCUAACAAAAAAGACCAAUCUGCCACAGAGCUUGAGAGCAUCUUCGUAUGCAGAGGCGGCAGCCUUCGGUGGCGGGAUAGCGCCAACGUUCUCAACUGUGACACGCAAAACGCGUGCUCCGUUGAAUGGAUUUUAUCAUC, the “polymerase ribozyme fitness (log ratio)” value was not above -4.2.
Regarding GGAUCUUCUCGAUCUAACAAAAAAGACCAAUCUGCCACAAAGCUUGAGAGCAUCUUCGGAUGCAGACGCGGCAGCCUUCGGUGGCGAGAUAGCGCCAACGUUCUCAACAAUGACACGCAAAACGCGUGCUCCGUUGAAUGGAGUUUAUCAUG, the “polymerase ribozyme fitness (log ratio)” value is not above -4.2.
Consider GGAUCUUCUCGAUCUAACAAAAAAGACAAAUCUGCCACAAAGCUUGAGAGCAUCUACGGAUGCAGAGGCGGCAGCCUUCGGUGGGUCGAUAGCGCCAACGUUCUCAACUAUGACACGCAAAACGCGUGCUCCGUUGAAUGGAGUUUAUCAUG, for which the “polymerase ribozyme fitness (log ratio)” value is not above -4.2.
With GGAUCUUCUCGAUUUAACAAAAAAGACAAAUCGGCCACAAAGCUUGAGAGCAUCUUCGCAUGCAGAGGCGGCAGCCUUCGGUGGCGUGAUAGCGCCAACGUUCUCAACUAUGACACGCAAAACUCGUGCUCCGUUGAAUGCAGUUUAUCAUU, the “polymerase ribozyme fitness (log ratio)” value is -4.16.
Regarding GGAUCUUCUCGAUCUAACAAAAAUGACAAAUCUGCCAAAAAGCUUGAGAGCAUCUUCGGAUGCAGAGGCGGCAGCCUUCGGUGGCGCGAUAGCGCCAACGUUCUCAACUAUGACACGCAAAACGCGUGCUCCGUUGAAUGGAGUUUAUCAUG, the “polymerase ribozyme fitness (log ratio)” value amounted to 0.851.
Next, GGAUGUUCUCGAUCUAACAAAAAAGACAAAUCUGCCACAAAGCUUGAGAGCAUCUUCGGAUGCAGAGGCGGCAGCCUUCGGUGGCGCGAUAGCCCCAACGUUCUCAACUAUGACACGCAAACCGCGUGCUCCGUUGAAUGGAGUUUAUCAUG: -1.03.
For the variant GGAUCUUCUCGAUCUAUCAAAAAAGACAAAUCUGCCACAAAGCUUGAGAGCAUCUUCGGAUGCAGAGGCGGCAGCCUUCGGUGGCGCGAUAGCGCCAACGUUCUCAACUAUGACACGCAAAACGCGAGCUCCGUUGAAUGGAGUUUAUCAUG, the “polymerase ribozyme fitness (log ratio)” value was -3.29.
